Here are results for two molecules from PMC5240623, “Methylation specific targeting of a chromatin remodeling complex from sponges to humans”.

Series [1] has as its target T1, HsMBD2 MBD (Homo sapiens, UniProt Q9UBB5 150-214). Description: SPR; steady state; Rmax 0.93; SPR: 10 mM HEPES pH 7.4, 50 mM NaCl, 3 mM MgCl2, 0.1 mM EDTA, 1 mM DTT, 0.05% polysorbate 20, temperature not stated; NMR conditions not in material. The note with it: protein: recombinant; blunt.
Series [2] has as its target T1, HsMBD2 MBD. Description: SPR; steady state; Rmax 6.0; SPR: 10 mM HEPES pH 7.4, 50 mM NaCl, 3 mM MgCl2, 0.1 mM EDTA, 1 mM DTT, 0.05% polysorbate 20, temperature not stated; NMR conditions not in material. The note with it: protein: recombinant; blunt.

T1 sequence (Q9UBB5 150-214): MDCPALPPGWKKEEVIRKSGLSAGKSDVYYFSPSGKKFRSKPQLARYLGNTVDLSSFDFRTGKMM

B1: mCpG 17 bp, 3'-biotin (dsDNA)
DNA 1: GAGGCGCTCGGCGGCAG
DNA 2: CTGCCGCCGAGCGCCTC
modifications: 5-methyl-C at C9 of strand 1 and C8 of strand 2 (central CpG); two other CpGs unmethylated
For the molecule B1, in the series with HsMBD2 MBD [1], the Kd is 0.33 µM.

B2: CpG(x3) 17 bp, 3'-biotin (dsDNA)
DNA 1: GAGGCGCTCGGCGGCAG
DNA 2: CTGCCGCCGAGCGCCTC
As to B2, in the series with HsMBD2 MBD [2], the Kd came to 81.7 µM.
